In publication PMC7383237, “Diversification of DNA-Binding Specificity by Permissive and Specificity-Switching Mutations in the ParB/Noc Protein Family”:
Numbering of substitutions follows the chain as printed.

T1: ParB PtoN7 (QTAR) (Caulobacter crescentus, UniProt B8GW30 1-304, R173Q;G201R)
T1 sequence: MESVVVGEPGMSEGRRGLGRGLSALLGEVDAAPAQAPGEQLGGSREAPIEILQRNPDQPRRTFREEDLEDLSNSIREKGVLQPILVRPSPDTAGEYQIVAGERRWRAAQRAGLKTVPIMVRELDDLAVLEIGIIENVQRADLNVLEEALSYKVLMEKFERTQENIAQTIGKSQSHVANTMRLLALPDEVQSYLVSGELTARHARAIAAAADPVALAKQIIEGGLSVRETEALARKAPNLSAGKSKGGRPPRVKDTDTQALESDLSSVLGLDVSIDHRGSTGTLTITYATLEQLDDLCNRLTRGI

T2: ParB PtoN1 (QTAG) (Caulobacter crescentus, UniProt B8GW30 1-304, R173Q)
T2 sequence: T1 sequence with R201G

T3: ParB WT (RTAG) (Caulobacter crescentus, UniProt B8GW30 1-304)
T3 sequence: T1 sequence with Q173R, R201G

T4: ParB DBD (Caulobacter crescentus, UniProt B8GW30 126-243)
T4 sequence: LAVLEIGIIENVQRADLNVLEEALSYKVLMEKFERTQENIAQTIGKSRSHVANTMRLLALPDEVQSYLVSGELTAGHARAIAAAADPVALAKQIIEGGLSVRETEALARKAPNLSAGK

B1: site6 (dsDNA)
DNA 1: GGGATCTTTCGCGCGAAAGA
DNA 2: TCTTTCGCGCGAAAGATCCC
B2: site11 (dsDNA)
DNA 1: GGGATTTTTCCCGGGAAAAA
DNA 2: TTTTTCCCGGGAAAAATCCC
B3: site9 (dsDNA)
DNA 1: GGGATTTTTCTCGAGAAAAA
DNA 2: TTTTTCTCGAGAAAAATCCC
B4: parS BLI duplex (dsDNA)
DNA 1: GGGATGTTTCACGTGAAACA
DNA 2: TGTTTCACGTGAAACATCCC
B5: site8 (dsDNA)
DNA 1: GGGATTTTTCACGTGAAAAA
DNA 2: TTTTTCACGTGAAAAATCCC
B6: site7 (dsDNA)
DNA 1: GGGATCTTTCCCGGGAAAGA
DNA 2: TCTTTCCCGGGAAAGATCCC
B7: site3 (dsDNA)
DNA 1: GGGATGTTTCCCGGGAAACA
DNA 2: TGTTTCCCGGGAAACATCCC
B8: site12 (dsDNA)
DNA 1: GGGATATTTCACGTGAAATA
DNA 2: TATTTCACGTGAAATATCCC
B9: site4 (dsDNA)
DNA 1: GGGATCTTTCACGTGAAAGA
DNA 2: TCTTTCACGTGAAAGATCCC
B10: site14 (dsDNA)
DNA 1: GGGATATTTCGCGCGAAATA
DNA 2: TATTTCGCGCGAAATATCCC
B11: NBS BLI duplex (dsDNA)
DNA 1: GGGATATTTCCCGGGAAATA
DNA 2: TATTTCCCGGGAAATATCCC
B12: site5 (dsDNA)
DNA 1: GGGATCTTTCTCGAGAAAGA
DNA 2: TCTTTCTCGAGAAAGATCCC
B13: parS 20-bp crystal duplex (dsDNA)
DNA 1: GATGTTTCACGTGAAACATC
DNA 2: GATGTTTCACGTGAAACATC
B14: site13 (dsDNA)
DNA 1: GGGATATTTCTCGAGAAATA
DNA 2: TATTTCTCGAGAAATATCCC
B15: site10 (dsDNA)
DNA 1: GGGATTTTTCGCGCGAAAAA
DNA 2: TTTTTCGCGCGAAAAATCCC
B16: site2 (dsDNA)
DNA 1: GGGATGTTTCGCGCGAAACA
DNA 2: TGTTTCGCGCGAAACATCCC
B17: site1 (dsDNA)
DNA 1: GGGATGTTTCTCGAGAAACA
DNA 2: TGTTTCTCGAGAAACATCCC

Legend:
ParB PtoN7 (QTAR) = molecular target: T1, ParB PtoN7 (QTAR); test: BLI; 1000 nM dimer; BLI: 100 mM Tris-HCl pH 7.4, 150 mM NaCl, 1 mM EDTA, 0.005% Tween 20; temperature not stated; biotinylated DNA on streptavidin sensor, protein typically 0-1000; settings: protein: recombinant; tags: C-terminal His6; chain copies: 2; label: 5' biotin on strand 1; blunt
ParB PtoN1 (QTAG) = molecular target: T2, ParB PtoN1 (QTAG); test: as above; settings: protein: recombinant; tags: C-terminal His6; chain copies: 2; label: 5' biotin on strand 1; blunt
ParB WT (RTAG) = molecular target: T3, ParB WT (RTAG); test: BLI; BLI: 100 mM Tris-HCl pH 7.4, 150 mM NaCl, 1 mM EDTA, 0.005% Tween 20; temperature not stated; biotinylated DNA on streptavidin sensor, protein typically 0-1000; settings: protein: recombinant; tags: C-terminal His6; chain copies: 2; label: 5' biotin on strand 1; blunt
ParB DBD = molecular target: T4, ParB DBD; test: X-ray crystallography 2.4 A; BLI: 100 mM Tris-HCl pH 7.4, 150 mM NaCl, 1 mM EDTA, 0.005% Tween 20; temperature not stated; biotinylated DNA on streptavidin sensor, protein typically 0-1000; settings: protein: recombinant; tags: C-terminal His6; chain copies: 2; blunt; palindrome, 2 strand copies

| Binder | binding result (ParB PtoN7 (QTAR)) | binding result (ParB PtoN1 (QTAG)) | Kd (ParB WT (RTAG)) [nM] | binding result (ParB DBD) |
| --- | --- | --- | --- | --- |
| B1 | no binding | no binding |  |  |
| B2 | no binding | no binding |  |  |
| B3 | no binding | no binding |  |  |
| B4 | no binding | no binding | 11 ± 7 |  |
| B5 | no binding | no binding |  |  |
| B6 | no binding | no binding |  |  |
| B7 | no binding | no binding |  |  |
| B8 | no binding | no binding |  |  |
| B9 | no binding | no binding |  |  |
| B10 | no binding | no binding |  |  |
| B11 | no binding | no binding |  |  |
| B12 | no binding | no binding |  |  |
| B13 |  |  |  | binds |
| B14 | no binding | no binding |  |  |
| B15 | no binding | no binding |  |  |
| B16 | no binding | no binding |  |  |
| B17 | no binding | no binding |  |  |
